Reference: PMC5105191
Where two headings read alike, the source gives them in different places.

Experiments:
[1] = biological target: FITC–PHC2_(32–61) (human); assay: fluorescence polarisation; 20 nM fluorescein-labelled PHC2 32-61 titrated with BMI1 UBL variants or MEL18 UBL; 50 mM bis tris pH 7.5, 50 mM NaCl, 1 mM TCEP, 0.01% BSA, 0.25% tween-20; 1 h incubation
[2] = biological target: BMI1_(121–235), BMI1 UBL domain, wild type (UniProt P35226); assay: ITC; VP-ITC, 25 °C, 50 mM phosphate pH 6.5, 50 mM NaCl, 1 mM TCEP; BMI1 121-235 in the cell (22 or 9 μM), titrated with trx-PHC2 1-79 (164 μM) or PHC2 33-56 (100 μM)
[3] = biological target: FITC–PHC2_(32–61) (human); assay: fluorescence polarisation; 20 nM fluorescein-labelled PHC2 32-61 titrated with BMI1 UBL variants or MEL18 UBL; 50 mM bis tris pH 7.5, 50 mM NaCl, 1 mM TCEP, 0.01% BSA, 0.25% tween-20; 1 h incubation; remark: listed apart in the source

“BMI1_(121–235), BMI1 UBL domain, wild type (from UniProt P35226 121-235) (domain or fragment)” gave a Kd [1] of 215 nM.

“BMI1 UBL domain M170E (from UniProt P35226 121-235) (domain or fragment)” gave a Kd [1] of 17000 nM.

trx-PHC2_(1–79) (domain or fragment) was tested, and the Kd [2] was 398 nM and the stoichiometry N [2] was 1.

“BMI1 UBL domain H174E (from UniProt P35226 121-235) (domain or fragment)” was tested, and the Kd [1] was 20100 nM.

“BMI1 UBL domain I212E (from UniProt P35226 121-235) (domain or fragment)” showed a Kd [1] of 1040 nM.

“BMI1 UBL domain R165E (from UniProt P35226 121-235) (domain or fragment)” gave a Kd [1] of 5900 nM.

Work on PHC2_(33–56) peptide yielded a Kd [2] of 413 nM.

“BMI1 UBL domain F189Q (from UniProt P35226 121-235) (domain or fragment)” was tested, and the Kd [1] was 409 nM.

“BMI1 UBL domain R165E/H174E double mutant (from UniProt P35226 121-235) (domain or fragment)” was tested, and the Kd [1] was > 50000 nM.

B1: MEL18_(121-237) fragment, MEL18 UBL domain (domain or fragment)
chain: EKGALSDDEIVSLSIEFYEGARDRDEKKGPLENGDGDKEKTGVRFLRCPAAMTVMHLAKFLRNKMDVPSKYKVEVLYEDEPLKEYYTLMDIAYIYPWRRNGPLPLKYRVQPACKRLT
In the case of B1, the Kd [3] is reported as 812 nM.
